Where two headings read alike, the source gives them in different places.
Experiments:
[1] = target: MBP-tagged NCS-1 (neuronal calcium sensor-1) (UniProt P62166); assay: pull-down
[2] = target: MBP-tagged NCS-1 (neuronal calcium sensor-1) (UniProt P62166); assay: pull-down; remark: listed apart in the source

MBP-tagged NCS-1 (neuronal calcium sensor-1), sequence (P62166 whole entry): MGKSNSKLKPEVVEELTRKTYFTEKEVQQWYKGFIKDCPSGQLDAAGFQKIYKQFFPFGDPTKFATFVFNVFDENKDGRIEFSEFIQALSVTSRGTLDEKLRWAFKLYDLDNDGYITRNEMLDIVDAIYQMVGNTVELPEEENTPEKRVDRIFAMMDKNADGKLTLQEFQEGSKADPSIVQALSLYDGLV

Substance: GST-tagged IM-AA mutant IQ domain of CaV2.1 (from UniProt P54282 1848-1964) (domain or fragment)
- relative binding (ratio of IMAA-GST to NCS-1-MBP) [1]: 0.29
- relative binding (ratio of IMAA-GST to NCS-1-MBP) [2]: 0.24

From paper PMC4293345
